# Measurements taken from patent publication US20040067513A1.
# Target: OB-RL(wt)
# Assay: cell-based or functional assay
substance,measurement,value
Leptin (ligand),"Reporter Activity (GT1-7 cells, leptin +; 3041 without leptin)",27000
same,"Reporter Activity (cells co-transfected with 84569 cDNA, leptin +; 4146 without leptin)",7600
same,"Reporter Activity (cells co-transfected with control vector, leptin +; 4316.5 without leptin)",25000
